Source: publication PMC4833948

Key:
[1] = molecular target: hNHE1cdt D1D2-(AXA)2 (human) (UniProt P19634)
hNHE1cdt F1-A (human) = hNHE1cdt F1-A (human) (UniProt P19634)
[2] = molecular target: human NHE1 C-terminal distal tail, M + I680-Q815 (hNHE1cdt WT) (human) (UniProt P19634)
hNHE1cdt D3-AXA (human) = hNHE1cdt D3-AXA (human) (UniProt P19634)
hNHE1cdt F2-AA (human) = hNHE1cdt F2-AA (human) (UniProt P19634)

k app of phosphorylation of S693 of hNHE1cdt by aERK2 (time-resolved NMR, 25 °C) [1]: 0.319 h⁻¹
k app of phosphorylation of S723/S726 of hNHE1cdt by aERK2 (decrease of the S723 peak; time-resolved NMR, 25 °C) [1]: 0.061 h⁻¹
k app of phosphorylation of S771 of hNHE1cdt by aERK2 (time-resolved NMR, 25 °C) [1]: 0.0066 h⁻¹
k app of phosphorylation of S785 of hNHE1cdt by aERK2 (time-resolved NMR, 25 °C) [1]: 0.0302 h⁻¹
k app of phosphorylation of T779 of hNHE1cdt by aERK2 (time-resolved NMR, 25 °C) [1]: 0.157 h⁻¹
k app of phosphorylation of S693 of hNHE1cdt by aERK2 (time-resolved NMR, 25 °C) (hNHE1cdt F1-A (human)): 0.3 h⁻¹
k app of phosphorylation of S723/S726 of hNHE1cdt by aERK2 (decrease of the S723 peak; time-resolved NMR, 25 °C) (hNHE1cdt F1-A (human)): 0.0741 h⁻¹
k app of phosphorylation of S771 of hNHE1cdt by aERK2 (time-resolved NMR, 25 °C) (hNHE1cdt F1-A (human)): 0.0047 h⁻¹
k app of phosphorylation of S785 of hNHE1cdt by aERK2 (time-resolved NMR, 25 °C) (hNHE1cdt F1-A (human)): 0.0088 h⁻¹
k app of phosphorylation of T779 of hNHE1cdt by aERK2 (time-resolved NMR, 25 °C) (hNHE1cdt F1-A (human)): 0.147 h⁻¹
k app of phosphorylation of S693 of hNHE1cdt by aERK2 (time-resolved NMR, 25 °C) [2]: 0.349 h⁻¹
k app of phosphorylation of S723/S726 of hNHE1cdt by aERK2 (decrease of the S723 peak; time-resolved NMR, 25 °C) [2]: 0.0821 h⁻¹
k app of phosphorylation of S771 of hNHE1cdt by aERK2 (time-resolved NMR, 25 °C) [2]: 0.0088 h⁻¹
k app of phosphorylation of S785 of hNHE1cdt by aERK2 (time-resolved NMR, 25 °C) [2]: 0.0305 h⁻¹
k app of phosphorylation of T779 of hNHE1cdt by aERK2 (time-resolved NMR, 25 °C) [2]: 0.165 h⁻¹
k app of phosphorylation of S693 of hNHE1cdt by aERK2 (time-resolved NMR, 25 °C) (hNHE1cdt D3-AXA (human)): 0.349 h⁻¹
k app of phosphorylation of S723/S726 of hNHE1cdt by aERK2 (decrease of the S723 peak; time-resolved NMR, 25 °C) (hNHE1cdt D3-AXA (human)): 0.0592 h⁻¹
k app of phosphorylation of S771 of hNHE1cdt by aERK2 (time-resolved NMR, 25 °C) (hNHE1cdt D3-AXA (human)): 0.007 h⁻¹
k app of phosphorylation of S785 of hNHE1cdt by aERK2 (time-resolved NMR, 25 °C) (hNHE1cdt D3-AXA (human)): 0.0325 h⁻¹
k app of phosphorylation of T779 of hNHE1cdt by aERK2 (time-resolved NMR, 25 °C) (hNHE1cdt D3-AXA (human)): 0.141 h⁻¹
k app of phosphorylation of S693 of hNHE1cdt by aERK2 (time-resolved NMR, 25 °C) (hNHE1cdt F2-AA (human)): 0.444 h⁻¹
k app of phosphorylation of S723/S726 of hNHE1cdt by aERK2 (decrease of the S723 peak; time-resolved NMR, 25 °C) (hNHE1cdt F2-AA (human)): 0.127 h⁻¹
k app of phosphorylation of S771 of hNHE1cdt by aERK2 (time-resolved NMR, 25 °C) (hNHE1cdt F2-AA (human)): 0.0088 h⁻¹
k app of phosphorylation of S785 of hNHE1cdt by aERK2 (time-resolved NMR, 25 °C) (hNHE1cdt F2-AA (human)): 0.012 h⁻¹
k app of phosphorylation of T779 of hNHE1cdt by aERK2 (time-resolved NMR, 25 °C) (hNHE1cdt F2-AA (human)): 0.144 h⁻¹
Substance: active ERK2 (aERK2) (from UniProt P28482 1-360) (enzyme)
